One block for each molecule: values may come before it.
Key:
HLA (human) [1] = assay: FACS, human lymphocytes
HLA (human) [2] = assay: FACS, MCF-7 breast tumour cell line
U140 [3] = assay: ELISA, coated antigen, supernatant, duplicate 1
U80 [4] = assay: ELISA, coated antigen, supernatant, duplicate 1
U140 [5] = assay: ELISA, coated antigen, supernatant, duplicate 2
U80 [6] = assay: ELISA, coated antigen, supernatant, duplicate 2
[7] = molecular target: T1, composite peptide GHNYTTRNILPGAGAKYYKENNVEK (BSA carrier protein attached for coating of ELISA plates); assay: ELISA, coated antigen, supernatant, duplicate 1
T1 construct: also called EP200/300; 200/300-peptide
T1 peptide: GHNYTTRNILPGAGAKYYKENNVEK

[8] = molecular target: T2, 200 (a peptide having the sequence of the E200 region); assay: ELISA, coated antigen, supernatant, duplicate 1
T2 construct: also called E200 peptide
T2 peptide: GHNYTTRNILPGLNITC

[9] = molecular target: T3, 300 (a peptide having the sequence of the E300 region); assay: ELISA, coated antigen, supernatant, duplicate 1
T3 construct: also called E300 peptide
T3 peptide: KYYKENNVEKRTLIKVF

[10] = molecular target: T1, composite peptide …; assay: ELISA, coated antigen, supernatant, duplicate 2
[11] = molecular target: T2, 200 (a peptide having the sequence of …); assay: ELISA, coated antigen, supernatant, duplicate 2
[12] = molecular target: T3, 300 (a peptide having the sequence of …); assay: ELISA, coated antigen, supernatant, duplicate 2

- Mean Fluorescence Intensity (MFI) (HLA (human) [1]): 3900 MFI
- Percent Cells Positive (HLA (human) [1]): 100%
- Mean Fluorescence Intensity (MFI) (HLA (human) [2]): 1670 MFI
- Percent Cells Positive (HLA (human) [2]): 87%
Molecule: HLA (W6/32) Positive Control (antibody)

- ELISA absorbance (405 nm, reference 490 nm) (U140 [3]): 0.17 OD
- ELISA absorbance (405 nm, reference 490 nm) (U80 [4]): 0.181 OD
- ELISA absorbance (405 nm, reference 490 nm) (U140 [5]): 0.508 OD
- ELISA absorbance (405 nm, reference 490 nm) (U80 [6]): 0.154 OD
- ELISA absorbance (405 nm, reference 490 nm) [7]: 3.62 OD
- ELISA absorbance (405 nm, reference 490 nm) [8]: 0.138 OD
- ELISA absorbance (405 nm, reference 490 nm) [9]: 0.144 OD
- ELISA absorbance (405 nm, reference 490 nm) [10]: 3.6 OD
- ELISA absorbance (405 nm, reference 490 nm) [11]: 0.194 OD
- ELISA absorbance (405 nm, reference 490 nm) [12]: 0.186 OD
B1: 2A11 (antibody, V domains shown)
VH: QVQLQESGGGSVQAGGSLRLSCTASGFTLDDSDLGWYRQAPGNECELVSIIRRDGSPYHTYYPDSVKGRFTISQDNAKNTLYLQMNSLKPEDTAVYYCAADPSRYYSDYGAPGCGFNYWGQGTQVTVSS
